Measurements reported in PMC9482650, “Quantitative fragmentomics allow affinity mapping of interactomes” (Nature Communications, 2022).

Assays:
Assay in all cases: holdup assay
Design in all cases: key: below the threshold = too weak to quantify, mostly under pKd 3.1 to 4
SYNPO2L, Q9H987 = molecular target: T1, SYNPO2L, Q9H987
T1 sequence (Q9H987 1-98, limits assumed, looked up): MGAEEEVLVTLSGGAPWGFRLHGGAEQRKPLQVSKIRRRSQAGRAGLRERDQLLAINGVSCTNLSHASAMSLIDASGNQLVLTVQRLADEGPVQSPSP

USH1C_2, Q9Y6N9 = molecular target: T2, USH1C_2, Q9Y6N9
T2 sequence (Q9Y6N9 206-303, limits assumed, looked up): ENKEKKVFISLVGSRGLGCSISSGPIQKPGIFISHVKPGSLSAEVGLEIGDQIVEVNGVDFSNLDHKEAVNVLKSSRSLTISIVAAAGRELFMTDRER

MAGI1_4, Q96QZ7 = molecular target: MAGI1_4, Q96QZ7
NHERF2_1, Q15599 = molecular target: NHERF2_1, Q15599
PDLIM4, P50479 = molecular target: PDLIM4, P50479
SDCBP_1, O00560 = molecular target: SDCBP_1, O00560
PTPN13_2, Q12923 = molecular target: PTPN13_2, Q12923
MAGI1_3, Q96QZ7 = molecular target: MAGI1_3, Q96QZ7
MPDZ_6, O75970 = molecular target: T3, MPDZ_6, O75970
T3 sequence (O75970 1003-1099, limits assumed, looked up): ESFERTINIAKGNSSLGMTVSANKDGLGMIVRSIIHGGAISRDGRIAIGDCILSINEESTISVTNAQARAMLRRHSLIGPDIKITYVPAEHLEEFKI

RGS3, P49796-9 = molecular target: RGS3, P49796-9
PARD6B, Q9BYG5 = molecular target: T4, PARD6B, Q9BYG5
T4 sequence (Q9BYG5 152-260, limits assumed, looked up): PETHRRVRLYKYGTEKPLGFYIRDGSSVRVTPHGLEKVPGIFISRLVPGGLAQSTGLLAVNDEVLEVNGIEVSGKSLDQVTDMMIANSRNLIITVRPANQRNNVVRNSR

DLG2_1, Q15700 = molecular target: DLG2_1, Q15700
SHROOM2, Q13796 = molecular target: T5, SHROOM2, Q13796
T5 sequence (Q13796 21-118, limits assumed, looked up): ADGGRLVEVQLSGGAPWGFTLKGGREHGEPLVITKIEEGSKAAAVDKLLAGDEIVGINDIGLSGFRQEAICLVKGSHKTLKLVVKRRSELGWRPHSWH

PTPN13_5, Q12923 = molecular target: T6, PTPN13_5, Q12923
T6 sequence (Q12923 1877-1975, limits assumed, looked up): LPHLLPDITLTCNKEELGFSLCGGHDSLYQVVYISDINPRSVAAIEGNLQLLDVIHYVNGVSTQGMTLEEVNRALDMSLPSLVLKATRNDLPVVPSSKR

PARD3B_2, Q8TEW8 = molecular target: PARD3B_2, Q8TEW8
PDZD2_4, O15018 = molecular target: T7, PDZD2_4, O15018
T7 sequence (O15018 723-823, limits assumed, looked up): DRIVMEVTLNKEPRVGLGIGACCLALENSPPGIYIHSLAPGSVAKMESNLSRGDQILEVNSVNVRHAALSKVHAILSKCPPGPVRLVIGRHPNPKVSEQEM

CNKSR3, Q6P9H4 = molecular target: CNKSR3, Q6P9H4
NHERF1_2, O14745 = molecular target: T8, NHERF1_2, O14745
T8 sequence (O14745 149-244, limits assumed, looked up): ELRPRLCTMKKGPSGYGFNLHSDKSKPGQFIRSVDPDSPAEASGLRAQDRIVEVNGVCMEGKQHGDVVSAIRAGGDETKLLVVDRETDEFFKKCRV

RIMS1, Q86UR5 = molecular target: RIMS1, Q86UR5
USH1C_1, Q9Y6N9 = molecular target: T9, USH1C_1, Q9Y6N9
T9 sequence (Q9Y6N9 82-179, limits assumed, looked up): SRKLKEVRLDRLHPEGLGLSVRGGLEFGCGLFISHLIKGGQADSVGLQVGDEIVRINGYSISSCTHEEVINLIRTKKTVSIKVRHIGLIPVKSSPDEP

IL16_2, Q14005 = molecular target: IL16_2, Q14005
MAGI3_3, Q5TCQ9 = molecular target: MAGI3_3, Q5TCQ9
MPDZ_7, O75970 = molecular target: T10, MPDZ_7, O75970
T10 sequence (O75970 1146-1253, limits assumed, looked up): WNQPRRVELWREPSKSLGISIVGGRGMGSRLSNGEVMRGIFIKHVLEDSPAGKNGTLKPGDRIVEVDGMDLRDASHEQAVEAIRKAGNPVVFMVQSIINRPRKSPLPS

SNTB2, Q13425 = molecular target: T11, SNTB2, Q13425
T11 sequence (Q13425 110-208, limits assumed, looked up): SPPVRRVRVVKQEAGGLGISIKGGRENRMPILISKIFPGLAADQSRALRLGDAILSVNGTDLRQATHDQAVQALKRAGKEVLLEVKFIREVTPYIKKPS

RIMS2, Q9UQ26 = molecular target: RIMS2, Q9UQ26
MAGI1_6, Q96QZ7 = molecular target: MAGI1_6, Q96QZ7
[1] = plain residues with an end cap or a label only (N-terminal biotin on a linker: ttds)
[2] = plain residues with an end cap or a label only (N-terminal biotin on a linker: none)

Sequence of RGS3, P49796-9 (P49796 other isoform, or with tags, fused parts or gaps): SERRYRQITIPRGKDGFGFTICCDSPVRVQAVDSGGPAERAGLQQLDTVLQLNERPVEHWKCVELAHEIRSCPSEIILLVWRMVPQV
Sequence of PDLIM4, P50479 (P50479 1-83): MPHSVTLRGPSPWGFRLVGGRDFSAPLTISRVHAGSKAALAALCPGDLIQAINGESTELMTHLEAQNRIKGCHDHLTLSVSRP
Sequence of PTPN13_2, Q12923 (Q12923 1363-1462): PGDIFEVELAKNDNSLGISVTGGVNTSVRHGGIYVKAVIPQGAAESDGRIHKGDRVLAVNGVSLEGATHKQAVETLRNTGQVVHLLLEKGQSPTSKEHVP
Sequence of MAGI1_3, Q96QZ7 (Q96QZ7 638-725): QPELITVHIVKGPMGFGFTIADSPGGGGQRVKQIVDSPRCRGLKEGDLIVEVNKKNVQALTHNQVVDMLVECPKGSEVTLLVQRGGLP
Sequence of RIMS2, Q9UQ26 (Q9UQ26 637-758): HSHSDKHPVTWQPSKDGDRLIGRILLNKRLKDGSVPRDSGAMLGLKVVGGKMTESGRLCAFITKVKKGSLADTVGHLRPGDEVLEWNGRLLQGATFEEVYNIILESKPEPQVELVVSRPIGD
Sequence of MAGI1_6, Q96QZ7 (Q96QZ7 1146-1238): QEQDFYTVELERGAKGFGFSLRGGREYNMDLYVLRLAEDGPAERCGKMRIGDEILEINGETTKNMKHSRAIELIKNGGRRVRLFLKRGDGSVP
Sequence of SDCBP_1, O00560 (O00560 111-198): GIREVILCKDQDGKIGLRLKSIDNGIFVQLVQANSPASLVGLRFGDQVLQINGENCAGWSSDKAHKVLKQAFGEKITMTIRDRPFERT
Sequence of CNKSR3, Q6P9H4 (Q6P9H4 203-303): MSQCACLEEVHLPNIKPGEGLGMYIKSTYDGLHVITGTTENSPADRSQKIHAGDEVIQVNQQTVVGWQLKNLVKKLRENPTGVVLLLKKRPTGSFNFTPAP
Sequence of MAGI1_4, Q96QZ7 (Q96QZ7 other isoform, or with tags, fused parts or gaps): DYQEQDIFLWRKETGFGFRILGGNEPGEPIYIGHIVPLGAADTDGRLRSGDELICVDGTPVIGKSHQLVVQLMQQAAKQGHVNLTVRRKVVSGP
Sequence of IL16_2, Q14005 (Q14005 350-450): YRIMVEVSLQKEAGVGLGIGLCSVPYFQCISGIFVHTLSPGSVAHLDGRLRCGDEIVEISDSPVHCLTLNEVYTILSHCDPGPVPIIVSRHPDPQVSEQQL
Sequence of MAGI3_3, Q5TCQ9 (Q5TCQ9 572-655): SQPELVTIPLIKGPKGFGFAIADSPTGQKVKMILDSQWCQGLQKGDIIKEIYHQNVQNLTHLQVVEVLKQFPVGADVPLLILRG
Sequence of RIMS1, Q86UR5 (Q86UR5 584-692): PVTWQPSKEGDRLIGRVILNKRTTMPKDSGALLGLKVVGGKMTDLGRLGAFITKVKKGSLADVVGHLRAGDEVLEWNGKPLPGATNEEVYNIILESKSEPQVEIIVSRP
Sequence of NHERF2_1, Q15599 (Q15599 9-91): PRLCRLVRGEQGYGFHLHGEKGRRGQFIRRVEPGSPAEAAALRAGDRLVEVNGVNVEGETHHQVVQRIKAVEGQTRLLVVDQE
Sequence of PARD3B_2, Q8TEW8 (Q8TEW8 376-471): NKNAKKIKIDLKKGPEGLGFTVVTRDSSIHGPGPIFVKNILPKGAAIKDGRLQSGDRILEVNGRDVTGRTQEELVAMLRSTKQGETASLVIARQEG

## HRTCYLVTQL [ASIC3, Q9UHC3]
SYNPO2L, Q9H987; [1]
  pKd: below the threshold
USH1C_2, Q9Y6N9; [1]
  pKd: below the threshold
MAGI1_4, Q96QZ7; [1]
  pKd: below the threshold
NHERF2_1, Q15599; [1]
  pKd: 4.56
PDLIM4, P50479; [1]
  pKd: below the threshold
SDCBP_1, O00560; [1]
  pKd: below the threshold
PTPN13_2, Q12923; [1]
  pKd: below the threshold
MAGI1_3, Q96QZ7; [1]
  pKd: below the threshold
MPDZ_6, O75970; [1]
  pKd: below the threshold
RGS3, P49796-9; [1]
  pKd: 4.32
PARD6B, Q9BYG5; [1]
  pKd: below the threshold
DLG2_1, Q15700; [1]
  pKd: below the threshold
SHROOM2, Q13796; [1]
  pKd: below the threshold
PTPN13_5, Q12923; [1]
  pKd: below the threshold
PARD3B_2, Q8TEW8; [1]
  pKd: below the threshold
PDZD2_4, O15018; [1]
  pKd: below the threshold
CNKSR3, Q6P9H4; [1]
  pKd: below the threshold
NHERF1_2, O14745; [1]
  pKd: 4.35
RIMS1, Q86UR5; [1]
  pKd: below the threshold
USH1C_1, Q9Y6N9; [1]
  pKd: below the threshold
IL16_2, Q14005; [1]
  pKd: below the threshold
MAGI3_3, Q5TCQ9; [1]
  pKd: below the threshold
MPDZ_7, O75970; [1]
  pKd: 4.73
SNTB2, Q13425; [1]
  pKd: below the threshold
RIMS2, Q9UQ26; [1]
  pKd: below the threshold
MAGI1_6, Q96QZ7; [1]
  pKd: below the threshold

## IQREDQETAV [DGKZ, Q13574]
SYNPO2L, Q9H987; [1]
  pKd: below the threshold
USH1C_2, Q9Y6N9; [1]
  pKd: below the threshold
MAGI1_4, Q96QZ7; [1]
  pKd: below the threshold
NHERF2_1, Q15599; [1]
  pKd: below the threshold
PDLIM4, P50479; [1]
  pKd: below the threshold
SDCBP_1, O00560; [1]
  pKd: below the threshold
PTPN13_2, Q12923; [1]
  pKd: below the threshold
MAGI1_3, Q96QZ7; [1]
  pKd: 4.57
MPDZ_6, O75970; [1]
  pKd: below the threshold
RGS3, P49796-9; [1]
  pKd: below the threshold
PARD6B, Q9BYG5; [1]
  pKd: below the threshold
DLG2_1, Q15700; [1]
  pKd: 4.71
SHROOM2, Q13796; [1]
  pKd: below the threshold
PTPN13_5, Q12923; [1]
  pKd: below the threshold
PARD3B_2, Q8TEW8; [1]
  pKd: below the threshold
PDZD2_4, O15018; [1]
  pKd: below the threshold
CNKSR3, Q6P9H4; [1]
  pKd: below the threshold
NHERF1_2, O14745; [1]
  pKd: below the threshold
RIMS1, Q86UR5; [1]
  pKd: below the threshold
USH1C_1, Q9Y6N9; [1]
  pKd: below the threshold
IL16_2, Q14005; [1]
  pKd: below the threshold
MAGI3_3, Q5TCQ9; [1]
  pKd: below the threshold
MPDZ_7, O75970; [1]
  pKd: below the threshold
SNTB2, Q13425; [1]
  pKd: 5.16
RIMS2, Q9UQ26; [1]
  pKd: below the threshold
MAGI1_6, Q96QZ7; [1]
  pKd: 4.35

## DPLTPSRSQL [DGKK, Q5KSL6]
SYNPO2L, Q9H987; [1]
  pKd: below the threshold
USH1C_2, Q9Y6N9; [1]
  pKd: below the threshold
MAGI1_4, Q96QZ7; [1]
  pKd: below the threshold
NHERF2_1, Q15599; [1]
  pKd: below the threshold
PDLIM4, P50479; [1]
  pKd: below the threshold
SDCBP_1, O00560; [1]
  pKd: below the threshold
PTPN13_2, Q12923; [1]
  pKd: 4.4
MAGI1_3, Q96QZ7; [1]
  pKd: below the threshold
MPDZ_6, O75970; [1]
  pKd: below the threshold
RGS3, P49796-9; [1]
  pKd: below the threshold
PARD6B, Q9BYG5; [1]
  pKd: below the threshold
DLG2_1, Q15700; [1]
  pKd: below the threshold
SHROOM2, Q13796; [1]
  pKd: below the threshold
PTPN13_5, Q12923; [1]
  pKd: below the threshold
PARD3B_2, Q8TEW8; [1]
  pKd: below the threshold
PDZD2_4, O15018; [1]
  pKd: below the threshold
CNKSR3, Q6P9H4; [1]
  pKd: below the threshold
NHERF1_2, O14745; [1]
  pKd: below the threshold
RIMS1, Q86UR5; [1]
  pKd: below the threshold
USH1C_1, Q9Y6N9; [1]
  pKd: below the threshold
IL16_2, Q14005; [1]
  pKd: below the threshold
MAGI3_3, Q5TCQ9; [1]
  pKd: below the threshold
MPDZ_7, O75970; [1]
  pKd: below the threshold
SNTB2, Q13425; [1]
  pKd: below the threshold
RIMS2, Q9UQ26; [1]
  pKd: below the threshold
MAGI1_6, Q96QZ7; [1]
  pKd: below the threshold

## DSKPPLPPDEWV [MERS-E, K9N5R3]
SYNPO2L, Q9H987; [2]
  pKd: 4.16
USH1C_2, Q9Y6N9; [2]
  pKd: below the threshold
MAGI1_4, Q96QZ7; [2]
  pKd: below the threshold
NHERF2_1, Q15599; [2]
  pKd: below the threshold
PDLIM4, P50479; [2]
  pKd: 3.83
SDCBP_1, O00560; [2]
  pKd: 4.12
PTPN13_2, Q12923; [2]
  pKd: 4.35
MAGI1_3, Q96QZ7; [2]
  pKd: below the threshold
MPDZ_6, O75970; [2]
  pKd: below the threshold
RGS3, P49796-9; [2]
  pKd: 4.67
PARD6B, Q9BYG5; [2]
  pKd: below the threshold
DLG2_1, Q15700; [2]
  pKd: below the threshold
SHROOM2, Q13796; [2]
  pKd: below the threshold
PTPN13_5, Q12923; [2]
  pKd: below the threshold
PARD3B_2, Q8TEW8; [2]
  pKd: below the threshold
PDZD2_4, O15018; [2]
  pKd: below the threshold
CNKSR3, Q6P9H4; [2]
  pKd: below the threshold
NHERF1_2, O14745; [2]
  pKd: below the threshold
RIMS1, Q86UR5; [2]
  pKd: 4.38
USH1C_1, Q9Y6N9; [2]
  pKd: below the threshold
IL16_2, Q14005; [2]
  pKd: below the threshold
MAGI3_3, Q5TCQ9; [2]
  pKd: below the threshold
MPDZ_7, O75970; [2]
  pKd: 3.83
SNTB2, Q13425; [2]
  pKd: below the threshold
RIMS2, Q9UQ26; [2]
  pKd: 4.39
MAGI1_6, Q96QZ7; [2]
  pKd: 4.66

## RTRQRNETQV [HPV51-E6, P26554]
SYNPO2L, Q9H987; [1]
  pKd: below the threshold
USH1C_2, Q9Y6N9; [1]
  pKd: below the threshold
MAGI1_4, Q96QZ7; [1]
  pKd: below the threshold
NHERF2_1, Q15599; [1]
  pKd: below the threshold
PDLIM4, P50479; [1]
  pKd: below the threshold
SDCBP_1, O00560; [1]
  pKd: below the threshold
PTPN13_2, Q12923; [1]
  pKd: below the threshold
MAGI1_3, Q96QZ7; [1]
  pKd: below the threshold
MPDZ_6, O75970; [1]
  pKd: below the threshold
RGS3, P49796-9; [1]
  pKd: below the threshold
PARD6B, Q9BYG5; [1]
  pKd: below the threshold
DLG2_1, Q15700; [1]
  pKd: 5.06
SHROOM2, Q13796; [1]
  pKd: below the threshold
PTPN13_5, Q12923; [1]
  pKd: below the threshold
PARD3B_2, Q8TEW8; [1]
  pKd: 4.39
PDZD2_4, O15018; [1]
  pKd: 4.34
CNKSR3, Q6P9H4; [1]
  pKd: below the threshold
NHERF1_2, O14745; [1]
  pKd: below the threshold
RIMS1, Q86UR5; [1]
  pKd: below the threshold
USH1C_1, Q9Y6N9; [1]
  pKd: below the threshold
IL16_2, Q14005; [1]
  pKd: below the threshold
MAGI3_3, Q5TCQ9; [1]
  pKd: below the threshold
MPDZ_7, O75970; [1]
  pKd: below the threshold
SNTB2, Q13425; [1]
  pKd: below the threshold
RIMS2, Q9UQ26; [1]
  pKd: below the threshold
MAGI1_6, Q96QZ7; [1]
  pKd: below the threshold
